Test results: article PMC3192843

Test system: nsp16;nsp10 (SARS-CoV strain WHU;SARS-CoV strain WHU)
Experiment: ITC
Details: 5' m7GpppA cap-0

Q: Which Kd does the source give for m7GpppA-RNA here?
A: 1210 nM
